The record followed here is US12378324B2, “Anti superoxide dismutase 1 (SOD1) antibodies and use thereof” (B. G. NEGEV TECHNOLOGIES AND APPLICATIONS LTD., AT …, priority 2018, dated 2025).

Assay type in all cases: binding
Test [1] concerns misfolded SOD1 variants (apo-SOD1^WT, holo-SOD1^WT, apo-SOD1^G93A, apo-SOD1^G85R). The test is described as follows: ELISA of secreted scFv-Ab (supernatant of transfected HEK 293 cells) on SOD1 variants. The following applies: FIG. 2, HEK 293 supernatant, anti-c-myc detection. An excerpt:
Binding of secreted scFv-Ab (as supernatant of HEK 293 cells transfected with the vector expressing scFv-Ab) to SOD1 variant (apo-SOD1^WT, holo-SOD1^WT, apo-SOD1^G93A, and apo-SOD1^G85R), was quantified by enzyme-linked immunosorbent assay (ELISA).
The inventors have constructed a single-chain fragment variable antibody (scFv-mAb), representing a hybrid protein that comprises both heavy and light chain variable Ig regions of the anti-β6/β7-loop mAb connected by a short flexible linker (linker length 15-20 amino acids). The advantages of single-chain antibody are its small size, low immunogenicity and increased half-life (due to the reduced clearance via Fc-mediated microglia phagocytosis), and the ability to be used in a gene delivery system, such as recombinant adeno-associated virus, AAV6, for intra- or extracellular expression. AAV vectors have a broad cell type tropism, provide stable and safe gene expression and minimize immune response. […] Recent advances in AAV vector engineering enabled these vectors (AAV9) to be injected directly IV to obtain efficient CNS expression DNA sequences encoding the scFv-Ab of the invention were further optimized in terms of the codon usage for expression in mammalian cells (e.g., murine). […]
(In an ELISA, binding on a coated surface is turned into a signal by an enzyme label.)

The subject of test [2] is misfolded familial ALS (fALS) mutants of SOD1 (SOD1^G93A and SOD1^G85R). The test can be described thus: ELISA of hybridoma supernatants with SOD1 variants as coating antigens. The following applies: FIG. 1B, SOD1^G93A and SOD1^G85R vs intact SOD1^WT. The text has this:
(§1) FIGS. 1A-1B are an image and a graph showing (1A) the surface pocket shaped by the two β6/β7 loops (arrows) in the intact SOD1^WT dimer, and (1B) the results of enzyme linked immunosorbent assay (ELISA) of supernatants of several hybridoma clones expressing anti-β6/β7-loop monoclonal antibody (mAb) using SOD1 variants as coating antigens. NC—negative control. WT—wild type; apo—WT in the absence of metals (Cu^2+ and Zn^2+); holo—WT in the presence of metals (Cu^2+ and Zn^2+); G93A—Glycine at position 93 was substituted to Alanine; G85R—Glycine at position 85 was substituted to Arginine; antigen peptide—peptide used to produce the disclosed mAb.
(§2) The loss of stabilizing metals, especially Zn^2+ is considered as the primary event which triggers the noxious structural transformation of SOD1, ultimately resulting in amyloid aggregation. Therefore, it is possible that the exposure of the β6/β7 loop epitope represents an early manifestation of the SOD1 noxious misfolding, and it is a common feature for both SOD1^WT and fALS SOD1^MUT. This early β6/β7 loop epitope is fundamentally different from the late epitopes of misfolded SOD1 such as those exposed on the dimer interface upon SOD1 monomerization; they correspond to the advanced stages of SOD1 misfolding and are apparently irreversible.

Test [3] has as its target apo-SOD1^WT (Homo sapiens, UniProt P00441). Described as above. The following applies: WT in the absence of Cu2+ and Zn2+, similar to SOD1^G93A and SOD1^G85R.
Excerpt: as §1, §2

Test [4] deals with holo-SOD1^WT (Homo sapiens, UniProt P00441). The test is described as above. The following applies: apo-SOD1^WT saturated with Cu2+ and Zn2+ by dialysis.
Chain of holo-SOD1^WT (P00441 2-154 limits assumed): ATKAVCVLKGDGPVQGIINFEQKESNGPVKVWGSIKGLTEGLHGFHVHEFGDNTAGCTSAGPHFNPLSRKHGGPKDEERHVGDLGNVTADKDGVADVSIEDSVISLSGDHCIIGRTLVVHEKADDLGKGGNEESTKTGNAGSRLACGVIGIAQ
Excerpt: as §1, §2

Chain of apo-SOD1^WT (P00441 2-154 limits assumed): as above

B1: scFv-Ab: single-chain fragment variable antibody: heavy and light chain variable regions of the anti-β6/β7-loop mAb joined by a flexible linker (protein)
scFv: QIQLVQSGPELKKPGESVSISCKASGYTFTDSAIHWVKQAPGKGLKYMGWINTYTGKPTYADDFKGRFVFSLEASASTAKLQISNLKSEDTATFFCARSVYSYDGTFYRYFLDAWGQGASVTVSSGGGGSGGGGSGGGGSDTVLTQSPALAVSPGEKVTISCRASESVSKHIHWFQQKSGQQPTLLIYLASSLESGVPARFSGSGSGTDFTLTIDPVEADDTATYYCQQSWNDPWTFGGGTKLELKGGGGS
modifications: left off: small tags and cut ends
notes: single-chain fragment variable antibody: heavy and light chain variable regions of the anti-β6/β7-loop mAb joined by a flexible linker
Regarding B1, the “binding of scFv-Ab to SOD1 variants” value in test [1] was “selectively recognizes misfolded SOD1 variants”.

B2: 6D12B10: rat monoclonal antibody against the β6/β7 loop of SOD1, raised with KLH-conjugated SE-21 peptide (antibody, V domains shown)
VH: QIQLVQSGPELKKPGESVSISCKASGYTFTDSAIHWVKQAPGKGLKYMGWINTYTGKPTYADDFKGRFVFSLEASASTAKLQISNLKSEDTATFFCARSVYSYDGTFYRYFLDAWGQGASVTVSS
VL: DTVLTQSPALAVSPGEKVTISCRASESVSKHIHWFQQKSGQQPTLLIYLASSLESGVPARFSGSGSGTDFTLTIDPVEADDTATYYCQQSWNDPWTFGGGTKLELK
On to B2, for which the “discrimination between the intact SOD1^WT and misfolded fALS mutants of SOD1” value in test [2] is on record as “complete discrimination”. Also, the “recognition of metal-free apo-SOD1^WT” value in test [3] is given as “recognized metal-free apo-SOD1^WT as misfolded protein”. The “mAb binding to holo-SOD1^WT” value in test [4] is “completely abolished mAbs binding”.
